Patent publication US6987008B1, “Variant nucleoside-5′-phosphate producing enzyme” (priority 1999, dated 2006)

Tests used:
[1] = system: OC[C@H]1O[C@@H](n2cnc3c(O)ncnc32)[C@H](O)[C@@H]1O; test: Km for inosine and guanosine, transphosphorylation by EA-AP mutant of pENP180 (parent); assay type: biochemical, Enterobacter aerogenes IFO12010; conditions: other: transphosphorylation, 100 μmol/ml sodium pyrophosphate, pH 4.0, 30° C., 10 min, cell free extract, Hanes-Woolf
Protocol: (§1) As a gene for introducing a mutation, a plasmid pENP170 that contained a mutant EA-AP gene coding for L61Q/A63Q/E64A/N67D/S69A/G72D/T133K/E134D/I151T mutant EA-AP was used. pENP170 was prepared as follows.
(§2) As described above, a mutant gene was constructed, in which the nucleotide sequence of −10 region of the deduced promoter sequence located upstream from the coding region of the deduced acid phosphatase derived from Enterobacter aerogenes IFO12010 was changed from AAAAAT to TATAAT, which was the same as lac promoter of Escherichia coli. The plasmid containing this mutant gene was designated as pENP180.
(§3) Escherichia coli JM109/pENP180, Escherichia coli JM109/pENP320, Escherichia coli JM109/pENP340, Escherichia coli JM109/pENP410, Escherichia coli JM109/pENP510 and Escherichia coli JM109/pENP520, which were introduced with a plasmid containing each mutant acid phosphatase gene, were each inoculated to 50 ml of L medium containing 100 µg/ml of ampicillin and 1 mM of IPTG, and cultured at 37° C. for 16 hours. The cells were suspended in 50 mL of 100 mM potassium phosphate buffer (pH 7.0), and disrupted by sonication at 4° C. for 20 minutes. The cells were collected from each medium by centrifugation, and washed once with physiological saline. […] Km values for inosine and guanosine in the transphosphorylation reaction were measured by using each cell free extract. […]

[2] = system: Nc1nc2c(ncn2[C@@H]2O[C@H](CO)[C@@H](O)[C@H]2O)c(=O)[nH]1; test: as above; assay type: biochemical, Enterobacter aerogenes IFO12010; conditions: other: transphosphorylation, 100 μmol/ml sodium pyrophosphate, pH 4.0, 30° C., 10 min, cell free extract, Hanes-Woolf
Protocol: as §1, §2, §3

[3] = system: OC[C@H]1O[C@@H](n2cnc3c(O)ncnc32)[C@H](O)[C@@H]1O; test: Km for inosine and guanosine, transphosphorylation by EA-AP mutant of pENP410; assay type: biochemical, Enterobacter aerogenes IFO12010; conditions: other: transphosphorylation, 100 μmol/ml sodium pyrophosphate, pH 4.0, 30° C., 10 min, cell free extract, Hanes-Woolf
From the text: (§4) The mutations were introduced into the plasmid DNA by using Quick Change site-directed mutagenesis kit produced by Stratagene. Twenty kinds of oligonucleotides (Table 12) for introduction of mutation from MUT180 (SEQ ID NO: 101) to […] (SEQ ID NO: 120) were synthesized by using a DNA synthesizer (Model 394 produced by Applied Biosystem). The mutations were introduced according to the protocol of Stratagene by using pENP170 as the first template and MUT180 and MUT181 as oligonucleotides for introduction of mutation.
(§5) By using a plasmid introduced with a mutation as a new template, the same procedure was repeated to cumulatively introduce site-specific mutations. Plasmids were prepared from the transformants by the alkali lysis method, and their nucleotide sequences were determined to confirm that the target nucleotides were replaced. […]
as §3, with “hours.” for “hours. The cells were suspended in 50 mL of 100 mM potassium phosphate buffer (pH 7.0), and disrupted by sonication at 4° C. for 20 minutes. The cells were collected from each medium by centrifugation, and washed once with physiological saline.”

[4] = system: Nc1nc2c(ncn2[C@@H]2O[C@H](CO)[C@@H](O)[C@H]2O)c(=O)[nH]1; test: as above; assay type: biochemical, Enterobacter aerogenes IFO12010; conditions: other: transphosphorylation, 100 μmol/ml sodium pyrophosphate, pH 4.0, 30° C., 10 min, cell free extract, Hanes-Woolf
From the text: as §4, §5
as §3, with “hours.” for “hours. The cells were suspended in 50 mL of 100 mM potassium phosphate buffer (pH 7.0), and disrupted by sonication at 4° C. for 20 minutes. The cells were collected from each medium by centrifugation, and washed once with physiological saline.”

[5] = system: OC[C@H]1O[C@@H](n2cnc3c(O)ncnc32)[C@H](O)[C@@H]1O; test: Km for inosine and guanosine, transphosphorylation by EA-AP mutant of pENP510; assay type: biochemical, Enterobacter aerogenes IFO12010; conditions: other: transphosphorylation, 100 μmol/ml sodium pyrophosphate, pH 4.0, 30° C., 10 min, cell free extract, Hanes-Woolf
From the text: as §4, §5
as §3, with “hours.” for “hours. The cells were suspended in 50 mL of 100 mM potassium phosphate buffer (pH 7.0), and disrupted by sonication at 4° C. for 20 minutes. The cells were collected from each medium by centrifugation, and washed once with physiological saline.”

[6] = system: Nc1nc2c(ncn2[C@@H]2O[C@H](CO)[C@@H](O)[C@H]2O)c(=O)[nH]1; test: as above; assay type: biochemical, Enterobacter aerogenes IFO12010; conditions: other: transphosphorylation, 100 μmol/ml sodium pyrophosphate, pH 4.0, 30° C., 10 min, cell free extract, Hanes-Woolf
From the text: as §4, §5
as §3, with “hours.” for “hours. The cells were suspended in 50 mL of 100 mM potassium phosphate buffer (pH 7.0), and disrupted by sonication at 4° C. for 20 minutes. The cells were collected from each medium by centrifugation, and washed once with physiological saline.”

[7] = system: OC[C@H]1O[C@@H](n2cnc3c(O)ncnc32)[C@H](O)[C@@H]1O; test: Km for inosine and guanosine, transphosphorylation by EA-AP mutant of pENP340; assay type: biochemical, Enterobacter aerogenes IFO12010; conditions: other: transphosphorylation, 100 μmol/ml sodium pyrophosphate, pH 4.0, 30° C., 10 min, cell free extract, Hanes-Woolf
From the text: as §4, §5
as §3, with “hours.” for “hours. The cells were suspended in 50 mL of 100 mM potassium phosphate buffer (pH 7.0), and disrupted by sonication at 4° C. for 20 minutes. The cells were collected from each medium by centrifugation, and washed once with physiological saline.”

[8] = system: Nc1nc2c(ncn2[C@@H]2O[C@H](CO)[C@@H](O)[C@H]2O)c(=O)[nH]1; test: as above; assay type: biochemical, Enterobacter aerogenes IFO12010; conditions: other: transphosphorylation, 100 μmol/ml sodium pyrophosphate, pH 4.0, 30° C., 10 min, cell free extract, Hanes-Woolf
From the text: as §4, §5
as §3, with “hours.” for “hours. The cells were suspended in 50 mL of 100 mM potassium phosphate buffer (pH 7.0), and disrupted by sonication at 4° C. for 20 minutes. The cells were collected from each medium by centrifugation, and washed once with physiological saline.”

[9] = system: OC[C@H]1O[C@@H](n2cnc3c(O)ncnc32)[C@H](O)[C@@H]1O; test: Km for inosine and guanosine, transphosphorylation by EA-AP mutant of pENP520; assay type: biochemical, Enterobacter aerogenes IFO12010; conditions: other: transphosphorylation, 100 μmol/ml sodium pyrophosphate, pH 4.0, 30° C., 10 min, cell free extract, Hanes-Woolf
From the text: as §4, §5
as §3, with “hours.” for “hours. The cells were suspended in 50 mL of 100 mM potassium phosphate buffer (pH 7.0), and disrupted by sonication at 4° C. for 20 minutes. The cells were collected from each medium by centrifugation, and washed once with physiological saline.”

[10] = system: Nc1nc2c(ncn2[C@@H]2O[C@H](CO)[C@@H](O)[C@H]2O)c(=O)[nH]1; test: as above; assay type: biochemical, Enterobacter aerogenes IFO12010; conditions: other: transphosphorylation, 100 μmol/ml sodium pyrophosphate, pH 4.0, 30° C., 10 min, cell free extract, Hanes-Woolf
From the text: as §4, §5
as §3, with “hours.” for “hours. The cells were suspended in 50 mL of 100 mM potassium phosphate buffer (pH 7.0), and disrupted by sonication at 4° C. for 20 minutes. The cells were collected from each medium by centrifugation, and washed once with physiological saline.”

[11] = system: OC[C@H]1O[C@@H](n2cnc3c(O)ncnc32)[C@H](O)[C@@H]1O; test: Km for inosine and guanosine, transphosphorylation by EA-AP mutant of pENP320; assay type: biochemical, Enterobacter aerogenes IFO12010; conditions: other: transphosphorylation, 100 μmol/ml sodium pyrophosphate, pH 4.0, 30° C., 10 min, cell free extract, Hanes-Woolf
From the text: as §4, §5
as §3, with “hours.” for “hours. The cells were suspended in 50 mL of 100 mM potassium phosphate buffer (pH 7.0), and disrupted by sonication at 4° C. for 20 minutes. The cells were collected from each medium by centrifugation, and washed once with physiological saline.”

[12] = system: Nc1nc2c(ncn2[C@@H]2O[C@H](CO)[C@@H](O)[C@H]2O)c(=O)[nH]1; test: as above; assay type: biochemical, Enterobacter aerogenes IFO12010; conditions: other: transphosphorylation, 100 μmol/ml sodium pyrophosphate, pH 4.0, 30° C., 10 min, cell free extract, Hanes-Woolf
From the text: as §4, §5
as §3, with “hours.” for “hours. The cells were suspended in 50 mL of 100 mM potassium phosphate buffer (pH 7.0), and disrupted by sonication at 4° C. for 20 minutes. The cells were collected from each medium by centrifugation, and washed once with physiological saline.”

[13] = biological target: T1, Escherichia blattae acid phosphatase (EB-AP), wild type, SEQ ID NO: 2 / 124 (Shimwellia blattae, UniProt Q9S1A6); test: Km of inosine for wild-type EB-AP; assay type: biochemical
T1 sequence (Q9S1A6 21-249): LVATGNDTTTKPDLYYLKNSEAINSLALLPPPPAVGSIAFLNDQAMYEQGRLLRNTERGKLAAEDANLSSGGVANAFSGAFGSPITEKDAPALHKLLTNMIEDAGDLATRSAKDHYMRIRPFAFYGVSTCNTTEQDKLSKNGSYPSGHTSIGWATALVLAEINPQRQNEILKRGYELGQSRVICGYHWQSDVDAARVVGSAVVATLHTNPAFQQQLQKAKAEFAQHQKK

Molecule: Enterobacter aerogenes IFO12010 acid phosphatase (EA-AP) mutant encoded by pENP180, L61Q/A63Q/E64A/N67D/S69A/G72D/T133K/E134D/I151T, SEQ ID NO: 10 (Klebsiella aerogenes KCTC 2190; A83Q/E154D/E84A/G92D/I171T/L81Q/N87D/S89A/T153K)
- Km [1]: 40 mM
- Km [2]: 40 mM

Molecule: Enterobacter aerogenes IFO12010 acid phosphatase (EA-AP) mutant encoded by pENP410, L61Q/A63Q/E64A/N67D/S69A/A70V/G72D/T133K/E134D/T149A/I151S (parent SEQ ID NO: 10) (Klebsiella aerogenes KCTC 2190; A83Q/A90V/E154D/E84A/G92D/I171S/L81Q/N87D/S89A/T153K/T169A)
- Km [3]: 18 mM
- Km [4]: 4.9 mM

Molecule: Enterobacter aerogenes IFO12010 acid phosphatase (EA-AP) mutant encoded by pENP510, L61Q/A63Q/E64A/N67D/S69A/A70E/G72D/T133K/E134D/T149G/I151S (parent SEQ ID NO: 10) (Klebsiella aerogenes KCTC 2190; A83Q/A90E/E154D/E84A/G92D/I171S/L81Q/N87D/S89A/T153K/T169G)
- Km [5]: 17 mM
- Km [6]: 4.0 mM

Molecule: Enterobacter aerogenes IFO12010 acid phosphatase (EA-AP) mutant encoded by pENP340, L61Q/A63Q/E64A/N67D/S69A/A70V/G72D/E102Q/T133K/E134D/T149S/I151S as printed in Table 13 (parent SEQ ID NO: 10) (Klebsiella aerogenes KCTC 2190; A83Q/A90V/E122Q/E154D/E84A/G92D/I171S/L81Q/N87D/S89A/T153K/T169S)
- Km [7]: 19 mM
- Km [8]: 5.1 mM

Molecule: Enterobacter aerogenes IFO12010 acid phosphatase (EA-AP) mutant encoded by pENP520, L61Q/A63Q/E64A/N67D/S69A/A70K/G72D/T133K/E134D/T149G/I151S (parent SEQ ID NO: 10) (Klebsiella aerogenes KCTC 2190; A83Q/A90K/E154D/E84A/G92D/I171S/L81Q/N87D/S89A/T153K/T169G)
- Km [9]: 46 mM
- Km [10]: 4.4 mM

Molecule: Enterobacter aerogenes IFO12010 acid phosphatase (EA-AP) mutant encoded by pENP320, L61Q/A63Q/E64A/N67D/S69A/A70V/G72D/E102L/T133K/E134D/T149S/I151S (parent SEQ ID NO: 10) (Klebsiella aerogenes KCTC 2190; A83Q/A90V/E122L/E154D/E84A/G92D/I171S/L81Q/N87D/S89A/T153K/T169S)
- Km [11]: 19 mM
- Km [12]: 4.6 mM

Molecule: OC[C@H]1O[C@@H](n2cnc3c(O)ncnc32)[C@H](O)[C@@H]1O [inosine]
- Km [13]: > 100 mM
